Experiment: yeast display, Sf9 membrane polyspecificity reagent, FACS + sequencing; frameworks hold sequencing errors
How it was run: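 Galactose induction of a Saccharomyces cerevisiae BJ5465 synthetic nanobody display library ran 36–48 hours. The cells were then stained for 1 hour at 4 °C with 10% biotinylated, detergent-solubilized Sf9 membrane reagent, pulled down on streptavidin microbeads and FACS-sorted into low and high (top ~1%) gates on expression and reagent-binding fluorescence. Labels for polyreactivity follow the gate of origin.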

Row | Sequence | polyreactivity (PSR sort gate)
1 | QVQLVESGGGLVQAGGSLRLSSAASGRIFYLYAMGWYRQAPVKERELVAGITSGGRTNYADSVKGRFTISRDNAKNTFFLQMNSLKPEDTAVYYCAAYYWGLYSGYYWRQGTQVTVSS | high polyreactivity
2 | QVQLVESGGGLVQAGGSLRLSSAASGRIFYPYTIGWYRQAPGKERELVAAISSTGRTNYADSVKGRFTISRDNAKNTVYLQMNSVKPEDTAVYYCAKGFRKYSLGPPGNDYWGQGTQVTVSS | high polyreactivity
3 | QVQLVESGGGLVQAGGSLRLSSAASGRIFYRNAMGWYRQAPGKEREMVAAINWSGGSTYYADSVKGRFTISRDNAKNSVYLQMNSLKPEDTAVYYCAAKPGKTPLTGDRGPYDTGYGYWGQGTQVTVSS | low polyreactivity
4 | QVQLVESGGGLVQAGGSLRLSSAASGRIFYRNAMGWYRQAPGKEREMVAAIRGSGGRTYYADSVKGRFTISRDNAKYTVYLQMISLKPEDTAVYYCAAYGYYVEHPRGLSGPYDDDYWGQGTQVTVSS | low polyreactivity
5 | QVQLVESGGGLVQAGGSLRLSSAASGRIFYSNAMGWYRQAPGKERELVAAITRSGGGTYYADSVKGRFTISSDNAKNTVYLLMNSLKPEDTAVYYCAAIYNWWGLGSLYYGSNYWGQGTQVTVSS | high polyreactivity
6 | QVQLVESGGGLVQAGGSLRLSSAASGRILPVNTMGWYRQAPGKERELVAVITRSGGRTYYADSVKGRFTISRDNAKNTVYLQMNSLKPEDTAVYYCAADVGFRWYRYTAGPLEYDYWGQGTQVTVSS | high polyreactivity
7 | QVQLVESGGGLVQAGGSLRLSSAASGRTFAVNAMGSYRQAPGKERELLAAISQRAGRTYYADSVKGRFTISRDNEKNTVYLQMNSLKPEDTAVYYCNVVGFRSRVGSRGYWGLGTQVTVSS | high polyreactivity
8 | QVQLVESGGGLVQAGGSLRLSSAASGRTFIVYAMGWYRQQPGKERELVARISSGSRTSYADSVKGRFTISRDNAKNTVYLQMNSLKPEDTAVYYCAKSRVIKYEFDYWGQGTQVTVSS | low polyreactivity
9 | QVQLVESGGGLVQAGGSLRLSSAASGRTFPIYAMGWYRQAPGKERELVATITLNDGNTYYADSVKGRFTISRDNAKNTVYLQMNSLKPEDTAVYYCAAKGGWPWHYHYQKNSEYDYWGQGTQVTVSS | low polyreactivity
10 | QVQLVESGGGLVQAGGSLRLSSAASGRTFRYYTMGWYRQAPGKEREFVAAISSTGGTYYADSVKGRFTISRDNAKNNVYLQMNSLKPEVTAVYYCAATFIQVVVNVELYDYDYWGQGTQVTVSS | low polyreactivity
11 | QVQLVESGGGLVQAGGSLRLSSAASGRTFYRYVMGWYRQAPGKERELVADITRSGGSTYYADSVKGRFTISRDNAKNTVYLQMNSLKPEDTAVYYCAAEFLSSVHVRGMDYWGQGTQVTVSS | high polyreactivity
12 | QVQLVESGGGLVQAGGSLRLSSAASGRTTKVYAMGWYRQGPGKPRELVARITSSGVRRYYADSVKGRFTISRDNAKNTVYLHMNSLKPEDTAVYYCGKDARALWLHSGIYDYSGQGTQVTVSS | low polyreactivity
13 | QVQLVESGGGLVQAGGSLRLSSAASGSIFARYAMGWYRPAPVKERELVAAISGRGGSTYYADSVKGRFTISRDNAKNTVYLQMNSLKPEDTAVYYCNAVGHTSIRRALDILDYWGQGPQVTVSS | high polyreactivity
14 | QVQLVESGGGLVQAGGSLRLSSAASGSIFFRNAMGWYRKAPGKERELVAAISRSGGNTYYADSVKGRFTISRDNAKNTVYLQMNSLKPEDTAVYYCAKYRTLYWYDYWGQGTQVTVSS | high polyreactivity
15 | QVQLVESGGGLVQAGGSLRLSSAASGSIFIPYAMGWYRQAPGKERELVAAISSSGSTYYADSVKGRFTISRDNAKNTVYFQMNSLKPEDTAVYYCAAAWHTAYWDGSDTLGGGYWGQGTQVTVSS | low polyreactivity
16 | QVQLVESGGGLVQAGGSLRLSSAASGSIFTYYAMGWYRQAPGKERELLASISRHGGSTYYADSVKGRFTISRDNAKNTVYLQMNSLKPEDTAVYYCNARGWHTKVVSPRYYWGQGTQVTVSS | high polyreactivity
17 | QVQLVESGGGLVQAGGSLRLSSAASGSIFVLYAMGWYRQAPGKERELVAAIDVGGGSTYYADSVKGRFTISRDNAKNTVYLQMNSLKPEDTAVYYCAAELYYTYRWYDYWGQGTQVTVSS | high polyreactivity

Source: the nanobody polyreactivity screen of Harvey et al. (2022)
